Test: yeast display, Sf9 membrane polyspecificity reagent, FACS + sequencing; frameworks hold sequencing errors
Outline: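 Galactose induction of a Saccharomyces cerevisiae BJ5465 synthetic nanobody display library ran 36–48 hours. The cells were then stained for 1 hour at 4 °C with 10% biotinylated, detergent-solubilized Sf9 membrane reagent, pulled down on streptavidin microbeads and FACS-sorted into low and high (top ~1%) gates on expression and reagent-binding fluorescence. Labels for polyreactivity follow the gate of origin.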

Row | Sequence | polyreactivity (PSR sort gate)
1 | QVQLVESGGGLDQAGGSLRLSCAASGSIFPFYAMGWYRQAPGKERELVAAISDRGGSTYYADSVKGRFTISRDNAKNSVYLQMNSLKPEATAVYYCAKGGEVSQGYTDEYDYWGQGTQVTVSS | low polyreactivity
2 | QVQLVESGGGLVQAGGSLRLSCAASGFIFYRYAMGWYRPAPGKVRELVAAINWSGGGTYYADSVKGRFTISRDHAKNTVYLQKNSRKPEETAVYYCAAGRSFRGSYWYEYCGQGTQVTVSS | high polyreactivity
3 | QVQLVESGGGLVQAGGSLRLSCAASGNTFGTYVMGWYRQAPGKERELVAAISQSGGSTDYADSVKGRFTISRYNAKNTVYLQMNSLKPEDTAVYYCATDGHYLYNRKYYRLTRYYYWGQGTQVTVSS | low polyreactivity
4 | QVQLVESGGRLVQAGGSLRLSCAASGFTFPWYTMGWYRQPPGKEREFVAAITVSGGSTYYADSVKGRFTISRDNAKNSVYLQMNSLKPEDTAVYYCARDGRVVYDSRYDYWGQGTQVTVSS | low polyreactivity
5 | QVQLVESGGGLVQAGGSLRLSCAASGSTLYANAMGWYRQAPGKEMALVAAITRTGGNTYYADSVKGRFTISRDNAKNTVYFQMNSLKPEDTAVYYCAARNPPTDHTGYQSSVLPGRYYWGQGTQVTVSS | low polyreactivity
6 | QVQLVESGGGLVQAGGSLRLSCAASGRTFDVYAMGGYRQAPGKERELVATIYYRSARTYYADSVKGRFTISRDNAKNTVYLQMNSLTPEDTAVYYCAAYFETWHGFGYWGQGTQVTVSS | high polyreactivity
7 | QVQLVESGRGLVQAGGSLRLRCAASGSTFNENVMGWYRQAPGKERELVAAIRTGSGSTYYADSVKGRFTISRDNAKNTVYLQMNSLKPEDTAVYYCYKDRGYSSLFSLFPGDYWGQGTQVTVSS | low polyreactivity
8 | QVQLVESVGGLVQAGGSLRLSCAASGRTFHGNAMRWYRQARGKERELVAAISYSGGRTYYADSVKGRFTISRDNAKNTVYLQMNSLKPEDTAVYYCAAWGSSYSFDYWGQGTQVTVSS | high polyreactivity
9 | QVQLVESGGGLVQAGGSLRLSCAASGRIFKYYAMGWYRQAPGKERELVAAISASGGSTYYADSVKGRFTISRDNAKNTVYLQMNSLKPEDTAVYYCAAATRRKRIWTATTRSEYWGQGTQVTVSS | high polyreactivity
10 | QVQRVESAAGLVQAGGSLRLSCAASGFIIVYYSMGWYRQAPGKERELVAAISRRGGSTYYADSVKGRFTISRDNAKNTVYLQMNSLKPEDTAVYYCNAVNVLAPSRGRRYDYWGQGTQVTVSS | high polyreactivity
11 | QVQLVESGGGLVQAGGSLRLSCAASGRIFYSNTMGWYRQAPGKERELVAGITSSGGSTYYADSVKGRFTISRDNAKYTVYLQMNSLKPEDTAVYYCATSSVAEAKYVTEGTFDYWGQGTQVTVSS | low polyreactivity
12 | QVLLVESRGGLVQAGGSLRLSCAASGGTFSYYAMGWYRQAPAKERELVAAISASGGSTYYADSVKGRFTISRDNAMNTVYLQRNSLKPEDTAVYYCNARYPYYFYAGNYWGQGTQVTVSS | low polyreactivity
13 | QVQLVESGGGLVQAGGSLRLSCAASGRIFKPYALGWYRPAPGKERELVAALSWTGGRTRYADSVKGRFTISRDNAMNTVYLQMNSLKPEDTAVYYCAAYAIVRSYFIYDYWGQGTQVTVSS | high polyreactivity
14 | QVQLVESAAGLVQAGGSLRLSCAASGFISPLYDMGGYRQAPGKERELVADITWRGGSTSYADSVKGRFTLSRDTAKKTGYLQMNSLKPEDTAVYYCAADARAFYYSNINGYWGQGTQVNVSS | high polyreactivity
15 | QVQLVESGGGLVQAGGSLRLSCAASGIIFVYNAMGWYRQAPGKERELVAVISFIGDSTYYADSVKGRFTISRDNAKNTVYLQMNSLKPEDTAVYYCAADYYLPYWFFVGYDYWGQGTQVTVSS | low polyreactivity
16 | QVQLVESGGGLVQAGGSLRLSCAASGRTFSSNAMGWYRQAPGKERELVASISFRGGRTYYADSVKGRFTISRDNAKNTVYLQMNSLKPEDTAVYYCVSGTKRTGYGYWGQGTQVTVSS | high polyreactivity
17 | QVQLVESGGGLFQAGGRLRLSCAASGYTFYLNAMGWYRQAPGKEREFVAVIDDSGDSTDYADSVKGRFTISRDNAKNTVYLQMHSLKPEDTAVYYCAANEGGTGDDYWGQGTQVTVSS | low polyreactivity
18 | QVQLVESGGGLVQAGGSLRLSCADSGSTFYYYTKGWYRQAPGKERELVAAISFSGGSTYYADSVKGRFTISLYNAKNTVYLQMNSLKPEDTAVYDCAAAQRVYKSWGYYWGQGSQVTVSS | low polyreactivity
19 | QFQLVESGGGLVQAGGRLRLSCAASGSTLRRYAMGWYRQAPGKERELVAAITYRSGSTYYADSVKGRFTISRDNAKNTVYLEMNSLKPVDTAVYYCAKVGYVSKYWFAGDYWGQGTQVTVSS | high polyreactivity
20 | QVQLVESGGGLVQAGGSLRLSCAASGIIISLYAMGWYSQAPGKERELVATISTGGGTYYADSVKGRFTISRDNAKNTVYLQINSLKPEDTAVYYCAARRSYYGRSYYYWGQGTQVTVSS | high polyreactivity
21 | QVQLVESGGGLVQAGGSLRLSCAASGSTFVYYAMGWYRQAPGKERELVAAISTSAGSTYYADSVKGRFTISRDNAKNTVYLQMNSLKPEDTAVYYCAAGRYYRGYYWGQGTQVTVSS | high polyreactivity
22 | QVQLVESGGGLVQAGGSLRLSCAASGFTFPVYAMGWSRQAPGKERELVAAISWSGGGTYYADSVKGRFTISRDNAKNTVYVQMNSLKPEDTAVYYCAVEDLSHAYVQHYRYGYGYWGQGTQVTVSS | low polyreactivity

Row | Sequence | polyreactivity (PSR sort gate)
23 | QVQLVESGGGLVQAGGSLRLSCAASGSIFTPYVKGWYRQAPGKERELVAAISKRGTRTYYSDSVKGRFTISRDNAKNTVYLQMNSLKPEDTAVYYCNAAVDYGSEHDYWGQGTQVTVSS | high polyreactivity
24 | QVQLVESGGGLVQAGGSLRLSCAASGRIFELYAMGWYRQAPGKERELVADITTIGDSTYYADSVKGRFTISRDNAKNTVYLQMNSLKPEDTAVYYCAADPYVDSYDSWGQGTQVTVSS | low polyreactivity
25 | QVQLVESGGGLVQAGCSLRLSCAASGRTFGGNAMGWYRQAPGKERELVAAISKSGGRTYYADSVKGRFTISRDNAKNTVYLQMNSLKPEDTAVYYCNKVLSVSQAGGFDYWGQGTQVTVSS | high polyreactivity
26 | QVQLVESGGGLVQAGGSLRLSCAASGLIFPSYTMGSYRQAPGKERELVAAITFSGDSTNYADSVKGRFTISRDNAKNTVYLQMNSLKPEDTAVYYCAAETITYGFDGDYWGQGTQVTVSS | low polyreactivity
27 | QVQLQGSGGGLVQAGGSLRLSCAASGNIFDADIMGWYRQAPGKESELVASITDGGSTNYADSVKGRFTISRDNAKNTVYLQMNSLKQVDTAVYYCAAIAYPDIPTYFDYDSDCFYWSQGTQVTVSS | high polyreactivity
28 | QVQLVESGGGLVQAGGSLRLSCAASGRIFRSNAMGWYRQAPGKERELVAVINSDDSTYYADSVKGRFTISRDNAKNTVYLQMNCLKPEDTAVYYCAAEPQYTRHMDSWGQGTQVTVSS | low polyreactivity
29 | QVQLVESGGGLVQAGGSLRLSCAASGSIFNSNAMGWYRPAPGKERELVAAITGSGGRTYYADSVKGRFTISRDNAKNTVYLKMNSLKPEDTAVYYCNVTRGTIGGYSYWGQGTQVTVSS | high polyreactivity
30 | QVQLVESGGGLVQAGGSLRLSCAASGSTFYANDMGWYRQAPGKERELVASISLGDGSTYYADSVKGRFTISRDNAKNTVYLQMNSLKPEDTAVYYCAAGFYVWYWGFNYWGQGSQVTVSS | low polyreactivity
31 | QVQLVESGGGLVQAGGSLRLSCAATGRTFSEYVMGWYRQAPGKERELVAAISDRGTRTYYSDSVKGRFTISRDNAKNNVYLPMNSLKPEDTAVYYCYAGLTYNHDPYDYWGQGTQVTVSS | high polyreactivity
32 | QVQLVESGGGLVQAGGSLRLSCAASGRTFLDNAMGWYRQAPGNEWELVATICSSGGTRYYADSVKGSFTISRDNAKNTVYLPMHSQKPEDTAVYYCNALWWGRYYRPYVTPVLGRMEYWGQGTQVTVSS | low polyreactivity
33 | QVQLVESGGGLVQAGGSLRLSCAPSGRTFWAYAMGWYRQAPGKERELVAAITRSGTTTSYADSVKGRFTISRDNAKNTVYLQMNSLKPEDTAVYYCNARPIRVYINSAQHYDYWGQGTQVTVSS | high polyreactivity
34 | QVQLVESGGGLVQAGGSLRLSFAASGITFTVYTMGWNRQAHGKVRELVPTINSSGSTYYADSVKGRFTISRDNAKNRVYLQMNSLKPEDTAVYYCAAEYWINRDLMDYWGQGTQVTVSS | high polyreactivity
35 | QVQLVESGGGLVQAGGSLRISCAASGSIFGVYAMGWYRQAPGKERELVAAIRSGGRTYYADSVKGRFTISRDNAKNTVYLQMNSLKPEDTAVYYCNAAFSSRVGRVQFYDYDYWGQGTQVTVSW | high polyreactivity
36 | QVQLVESGGGLVQAGGSHRLSCAASGRTFPYYAMGWYRQAPGKERELVAAITRGVRTHYADSVKGRFTISRDNAKNTVYLQMNSLKPEDTAVYYCAREDWGSYSDMDSWGQGTQVTVSS | low polyreactivity
37 | QVQLVESGGGLVQAVGSLRLICDASGRIFYGYAMGWYRQAPGTERELVAANTYIGGTYYADSVKGRFTISRDNAKNTVDFLMNSVKPEDTSVYYWATEPFYNYGYFTYPYWYDYWGQGSQVTVSS | low polyreactivity
38 | QVQLVESGGGLVQAGGSIRLSCAASGFTFRSYTMGWYRQAPGKESELVAAITSRGTSTYYADSVKGRFTIPRDNAKNAVYLQMNSLKPEDTAVYYCNADGTRYAGDDYWGQGTQVTVSS | high polyreactivity
39 | QVQLVESGGGLVQAGGSLRLSCAASGSTFRYYAMGWYRQAPGKERELVAAISGSGGRTYYADSVKGRFTISRDNAKNTVYLQMNSLKPEDTAVYYCITRGRRTDYDYWGQGNQVTVSS | high polyreactivity
40 | QVQHVESGGGLVQAGGSLRLTCAASGITFYRYAMGWYRQATGKEREFVAAINYGGSSTRYADSVKGRFTISLDNAKNSVYLQMNSLKPEDTAVYYCAVEKRYPRRRYDYWGQGTQVTVSS | low polyreactivity
41 | QVQLVESGGGIVQAGGSLRVSCAASGRTFWGYAMGWYRQAPGKERELVAALNKSGGSTYYADSVKGRFTISRDNAKNTVYLQKNSLNPEDTAVYYCIAVYYWYKGDYWGQGTQVTVSS | high polyreactivity
42 | QVQLVESGGGLVQAGGSLRLSCAASGSILDPYVMGWYRQSPGKEWELVAAITQSGGSTYYADSVKGRFTISRDNAKNTVYLQMNSLKPEDTAVYYCATTRPIRRTSARYNYWGQGTQVTVSS | low polyreactivity
43 | QVQLQESGGGLVRAGGSLSLSCAASGTIFGQFYMGRYRQAPGKEREFVATINYGSSTNYADSVKGRYTISRDNAKNTVYLQMNSLKPEDTAVYYCNTDFFYYGYNFPYFDYDYWGQGSQVTVSS | low polyreactivity
